We go through 2 molecules from article PMC12176259, “Bacterial transcriptional repressor NrdR – a flexible multifactorial nucleotide sensor”.

The target in series [1] is T1, NrdR (EcoNrdR) (Escherichia coli K-12 MG1655, UniProt P0A8D0 1-149).
T1 sequence: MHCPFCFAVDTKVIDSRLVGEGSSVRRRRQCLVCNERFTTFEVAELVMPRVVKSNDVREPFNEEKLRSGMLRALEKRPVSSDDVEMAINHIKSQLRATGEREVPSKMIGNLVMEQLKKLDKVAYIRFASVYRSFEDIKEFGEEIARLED
In words: cryo-EM structure (4 A); ATP + dATP 0.5 mM each, 5 mM Mg2+, Zn2+; NrdR tetramer; MST: 17 mM Tris-HCl pH 8.6, 100 mM NaCl, 7 mM MgCl2, 0.33 mM TCEP, 0.025% Tween-20, nucleotides 1 mM each, 5 nM Cy5-DNA, room temperature. The settings on record: protein: recombinant; tags: C-terminal His6; chain copies: 4; blunt.

Series [2] concerns the target T1, NrdR (EcoNrdR). In words: MST; ATP + dATP; MST: 17 mM Tris-HCl pH 8.6, 100 mM NaCl, 7 mM MgCl2, 0.33 mM TCEP, 0.025% Tween-20, nucleotides 1 mM each, 5 nM Cy5-DNA, room temperature. The settings on record: protein: recombinant; tags: C-terminal His6; chain copies: 4; label: 5'-Cy5 sense strand; blunt.

B1: EcoEF7,3 (dsDNA)
DNA 1: GCACTATTTGCTATATATTGTGTGGTTGAATCTTTTTTCAACTACATCTAGTATCTC
DNA 2: GAGATACTAGATGTAGTTGAAAAAAGATTCAACCACACAATATATAGCAAATAGTGC
As for B1, the binding result with NrdR (EcoNrdR) [1] is reported as “binds”.

B2: ribX promoter (dsDNA)
DNA 1: AGCATCGATCCTTTATCTCAAAAGCGTTGCGCCTTTGTTGTATCGTCAGTTCAGGGT
DNA 2: ACCCTGAACTGACGATACAACAAAGGCGCAACGCTTTTGAGATAAAGGATCGATGCT
Regarding B2, the binding result with NrdR (EcoNrdR) [2] is recorded as “no binding”.
